Source: the nanobody polyreactivity screen of Harvey et al. (2022)

Test: yeast display, Sf9 membrane polyspecificity reagent, FACS + sequencing; frameworks hold sequencing errors
Summary of the method: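 After 36–48 hours of galactose induction, yeast (Saccharomyces cerevisiae BJ5465) displaying a synthetic nanobody library were stained at 4 °C for 1 hour with 10% biotinylated, detergent-solubilized Sf9 membrane reagent. Streptavidin microbeads enriched the stained cells before FACS sorting into low and high (top ~1%) gates on anti-HA and streptavidin fluorescence. Each clone's polyreactivity label reflects its gate of origin.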

| Sequence | polyreactivity (PSR sort gate) |
| --- | --- |
| PVQLVESGGGLVQAGGSLRLSCAASGRTFGYNAMGWYRQAPGKERELVASISYRGGSTYYADSVKGRFTISRDNAKNTVYLQMNSLKPEDTAVYYCNKYYVWREYYWGQGTQVNVSS | high polyreactivity |
| PVQLVESGGGLVQAGGSLRLSCAASGRTFYKYAMGWYRQAPGKERELVAAISKSGGRTYYADSVKGRFTISRDNAKNTVYLQMNSLKPEDTAVYYCAAEPFIPDQSRYYYWGQGTQVTVSS | high polyreactivity |
| PVQLVESGGGLVQAGGSLRLSCAASGRTVWNTMGWDRQSPGNERELVAAISYSGGTTYYADSVKGRFTISRDNAKNTVYLQMNSLKPEDTAVYYCNAVTYGWTAYYKGKRYDYWGQGTQVTVSS | high polyreactivity |
| PVQLVESGGGLVQAGGSLRLSCAASGSTFDAYDLGWYRQAPGKERELVAAINWSGGITYYADSVKGRFTISRDNAKNTVYLQMNSLKPEDTAVYYCNADASFYSRVNYWGQGTQVTVSS | high polyreactivity |
| PVQLVESGGGLVQAGGSLRLSCAASGSTSSYYAMGWYRQAPGKERELVAAIRTSGRTYYADSVKGRFTISRDNAKNTVYLQMNSLQPEDTAVYYCNAGYVSPDYDSWGQGTHVTVSS | high polyreactivity |
| PVQLVESGGGLVQAGGSLSLTCAASGSIFPYYTMRWYRPAPGKERELVATITGNGGSTYADSGKGRFTISRDNAKNTVYLQMNSLKPEDTAVYYCAVYGDSYWGAYYYSDGYWGQGTQVTVSS | low polyreactivity |
| PVQLVESRGRLVQAGGSLRLSCAASGSIFGYNAMGWYRQAPGKERELVAAISYSGASTYYSDSVKGRFTISRDNAKNTVYLQLNSLKPEDTAVYYCAAGWKRFSGRNHYYWGLGTQVTVSS | high polyreactivity |
| PVQLVESWGGLDQAGGSLRLICAPSGSIFSVYAMGWYRQAPGKERELVAAISWSGGSTYYADSVKGRFTISRDNAKNTVYLQLNSLKPEDTAVYYCNAKHLPRHRDYWGQGTQVTVSS | low polyreactivity |
| QAQLQESGGSLVQAGGGLRLSCAASGYISVGSVMGWYRQAPSKERELGASIDQGANTNYADSVKGRFTISRDNAKNNVYLQMNSLKPEDTAVYYCATETTYILNYWGQGTQVTVSS | low polyreactivity |
| QAQLQESGGSLVQAGGGLRLSCAASGYISVGSVMGWYRQAPSKERELVASIDQGANTNYADSVNGRFTISRDNAKNKESLQMNSLKPEDTAVYYCATETTYIVIYWGQGTQVTVSS | low polyreactivity |
| QDHIVESGGGLVQAGGSLRLSCAASGSTFKLYAMGWYRQAPGKERELVAAITRSGTRTYYADSVKGRFTISRDNAKNTVYLQMNILKPEDTAVYYCAADGYRISGYDYWGQGTQVTVSS | high polyreactivity |
| QDHLVESGGGLDQAGGSLRLSCAASGRILGDYAMGWYRQAPGKEREFVAAIDYNGGSTNYADSVKGRFTISRDNAKNTVYLQMNSLKPEDTAVYYCAAPGFPSRNGFGYWGQGTQVTVSS | low polyreactivity |
| QDHLVESGGGLVQAGGSLRLSCAASGGIFYGYAMGWYRQAPGKERELVAAISTSDASTYYADSVKGRFTFSRDNAKNTVFVQMNSLKPEATAVYYCATDLPDGYDYWGQGTQVTVSS | low polyreactivity |
| QDHLVESGGGLVQAGGSLRLSCAASGISFWFNAMGWYRQAPGKEREWVGAITSGVDTNYADSVKGRFTISRDNAKNTVYLQMNSLKPEDTAVNYSAAQGGRLKRGSTTSDYWGQGTQVTVSS | low polyreactivity |
| QDHLVESGGGLVQAGGSLRLSCSASGRTFGTYAMGWYRQAPGKERELVATISSGGSTYYADSVKGRFTISRDNAKNTGYLQMNSLKPEDTAVYYCADYRYFRPGDYWGQGTQVTVSS | low polyreactivity |
| QDLLVDSGGGLLQAGGSLRLSCAASGSIFYTNTMGWYRHAPGKERALVAAISYSDSTTYYADSVKGRFTISRDNAKNSVYLQMNSLKPEDTAVYYCAAQQFYTYYQTYDYWGQGTQVTVSS | high polyreactivity |
| QDQHGDSGGGLVQAGGSLRLSCSASGFTITYNTMGWYRQAPGKERELVATITAGDGSTYYADSVKGRFTISRDNAKNTVYFQMNSLKPEDTAVYYCAADAYYYYAGGHYYWGQGTQVTVSS | low polyreactivity |
| QDQHVESEVGLVQAGGSLRLSCAASGSTVYPYAKGWYRKAPGKERELDAAISSGGSTYYADSVKGRFTISRDNAKNTVYLQMNSLKPEDTAVYYCAADFYYAYYWGQGSQVTVSS | low polyreactivity |
| QDQHVESGGCLVQAGGSRRLSCAASGSILGAYTMGCYRQAQGKERELVAAITRRGGSTYYADSVKGRFTISRDNAKNTVYLQMNSLKPEDTAVYYWNAEYGVWYDYLVVPYDYWGQGTQVTVSS | low polyreactivity |
| QDQHVESGGGLVQAGASLRLSCSASGRIFRRYAMGWYRQAPGKERELVAAISWSGGTTYYADSVKGRFTISRDNAKNTVYLQINSLKPEDTAVYYCAKLYSSVTTTYPYGLPRYDSWGQGTQVTLSS | high polyreactivity |
| QDQHVESGGGLVQAGGSLRISSAASGSIYFYNAMGWYRQAPGQERELVAAITTRGGSTYYADSVKGRFTISRDNAKNTVYLQMNSLKPEDTAVYYCARSSRGKLDYWGQGTQVTVSS | low polyreactivity |
| QDQHVESGGGLVQAGGSLRLSCAASGFTIRNYAMGWYRQAPGKVMELVPAISKRGGNTYYADSVKGRFSISRDNAKNNVYLQLNSLKPEDTAVYFCAADYQFSQDVWHFGYCGQGTQVTVSS | high polyreactivity |

| Sequence | polyreactivity (PSR sort gate) |
| --- | --- |
| QDQHVESGGGLVQAGGSLRLSCAASGGTFVPYAMGWYRQAPGKERELVARISKRGGTTYYADSVKGRFTISRDIAKNTVYLQMNSLKPEDTAVYYCAAGLPARGYYWGQGTQVTVSS | high polyreactivity |
| QDQHVESGGGLVQAGGSLRLSCAASGLIFNNYAMGWYRQAPGKERELVAPISRTGTSTYYADSVKGRFTISRDNAKNTVYLQMNSLKPEDTAVFYCNAVIQLFEWGWDDEYDYWGQGTQVTVSS | low polyreactivity |
| QDQHVESGGGLVQAGGSLRLSCAASGSIFGYYARGWYRQAPGTETELVAAISKSGTRTYYADSVKGRFTISRDNAKNTVYVQMNSLKPEETAVYYCAARYYSRTTAMDYWGQGTQVTVSS | high polyreactivity |
| QDQHVESGGGLVQAGGSLRLSCAASGSTFAFYAMGWYRQAPGKERELVAAINYGGTSTYYADSVKGRFTISRDNAKNTVYLQMNSLKPEDTAVYYCAARRPTSPRRYESWGQGTQVTVSS | high polyreactivity |
| QDQHVESGGGLVQAGGSLRLSCAASGSTLLYYVMGWYRQAPGKERELVAAITGTGGRTYYADSVKGRFTISRDNAKNTVYLQMNSLKPEDTAVYYCAREWRTRIYYYWGQGTQVTVSS | low polyreactivity |
| QDQHVESGGGLVQAGGSLRLSCAASGTIFCYYAMGWYRQAPGKERGLVASISWNGTSTYYADSVKGRFTISRDNSKNTVYLQMNCLNPEDTAVYYCNVRFNYRGTYDYWGQGTQVTVSS | low polyreactivity |
| QDQHVESGGGLVQAGGSLRLSCAASGTTFSLYMGWNRQSPGKERKLVAAITYSGGRTYYADSVKGRFTISRDNAKNTVYLQMNSLKPEDTAVYYCGTVFNDLTVYEYWSRFDYWGQGTQVTVSS | low polyreactivity |
| QDQHVESGGGLVQAGGSLRLSCDASGRTFTRYAMGWYRQAPGKERELVAAISRGGSTYYADSVKRRFTISRDNAKNTVYLQMNSLKPEDTAVYYCAARYGTYTAGNYWGQGTQVTVSS | high polyreactivity |
| QDQHVESGGGLVQAGGSLRLSFADSGITFDYYAMGWYRQAPGKERELVAAISVSGGDTYYADSVKGRFTISRDNAKNTVYLQMNRLKPQDTSVYYCAAEEVSPRWYDYWGQGTQVTVSS | low polyreactivity |
| QDQHVESGRGLVQAGGSLRLSCSASGTIFAYVMGWNIQAPRKERQLVAAISRSGGSTYYADSVKGRFTISRDNAKNTVYLQMNSLKPEDTAVFYCAAVGSTVFGTRYYYWGEGTQVTVSS | high polyreactivity |
| QDQHVESVGGLVQAGGSLRFSCAASGSTFTRYAMGWYRQAPGKERELVAAIDGGGGSTSYADSVKGRFTISRDNAKNTVYLQMNSLKPEDTAVYYCAAPLDTSSSIFDYWGQGTQVTVSS | low polyreactivity |
| QDQIVESGGGLVQAGGSLRLSCASSGFTFYVYAMGWYRQAPCKERELVAAISWSGGRTYYAESVKGRFTISRDNAKNTVYLQMNSLKPEDTAVYYCAAYRYYPSYDYWGQGTQVTVSS | high polyreactivity |
| QDQIVYSGGGLVQAGGSLRLSCAASVRTFYRYDLGWYIQAPGKESELVAAISYSGASTYYADSVKGRFTISRDIAKNTVYLQMNSLKPEDTAVYYCAARYHGRDPRQIRYGYWGQGTQVTVSS | high polyreactivity |
| QDQLEESGGGIVQAGGSLRLSCAASGSTFQYYAMGWYRQAPGKERELFAAISASVDTKFYADSVKGRFTISRDNAKNTVYLQMNSLKPEDTAFYYCATDWPHWRKVYWFDYWGQGTQVTVSS | low polyreactivity |
| QDQLEESGGGLVQAGASLRLSCAAYGSIFSGYAMGRYRQATGKERELVAAITWRAASTYYADSVKGRFTISRDNAKTTVYLQMNSLKPEDTEVYYCAKEGWPKPAFYYWGLGTQVTVSS | low polyreactivity |
| QDQLEESGGGLVQEGGSLRLSCAASGFIFPRYAMGWYRQAPGKERELVAAISRSGGITRYADSVKGRFSISRDNAKNTVYLQMISLKPEDTAVYYCAAARSYWAKYYYWGQGTQVTVSS | high polyreactivity |
| QDQLGDSGGGLVQAGGSLRLSCAASGLTFYRYAMGWYRQAPGKERELVAAIRWNSGSTYYADSVKGRFTISRVNAKNTVYLQMNSLKPEDTAVYYCAATAIYPSAWRMAYWGQGTQVTVSS | high polyreactivity |
| QDQLGESGGGLVQAGGSLRLICAASGRIFVSNTMGCYRQAPGKERELVATISRRGGITYYADSVKGRFTISRDNAKNTVYLQMNSLKPEDTAVYYCAAESYSFWLYDYCGQGTQVTVSS | high polyreactivity |
| QDQLGESGGGLVQAGGSLRLSCAASGSIFETYVMGWYRQAPGKERELVAAINSGGSTNYADSVKGRFTISRDNAKNTVYLQMNSLKAEDTAVYYCNADWFTPAQPWYRYFIRYDYWGQGTQVTVSS | low polyreactivity |
| QDQLLESGAGLVQAGGSLRLSCAASGRIFDYNVMGWYRQAPGKERELVADITSSGGSTYYADSVKGRFTISRDNAKNTVYLQMNSLKPEDTAVYYCYISYFTIYDDFYYWGQGTQVTVSS | low polyreactivity |
| QDQLLESGGGLVQAGGSLRLSCAASGSILQDYAMGWYRQAPGKERELVAAISNSGDSTYYADSLKGRFTISRENAKTTVYLQLNSLKPEDTAVYYCNAAVYPYAMYSGGLDYDYWGHGTQVTVSS | low polyreactivity |
